From US20150218594A1, “CELL-FREE AND MINIMIZED METABOLIC REACTION CASCADES FOR THE PRODUCTION OF CHEMICALS” (CLARIANT PRODUKTE (DEUTSCHLAND) GMBH, priority 2012, published 2015)
Like-named read-outs stand apart in the source and are kept apart here.

How the values were obtained:
[1] = ALDH activity assay (glyceraldehyde to glycerate, NAD reduction); assay type: biochemical; conditions: natural substrate
Description: (§1) (J. Mol. Catal. B-Enzym. 2009, 61, 30-35).
ALDH activity: ALDH activity was assayed at 50° C. by oxidizing D-glyceraldeyde to glycerate, whereby the coenzyme NAD is reduced to NADH. Assay mixture contained 50 mM HEPES (pH 7), 2.5 mM MgCl2, 2 mM NAD and 1 mM glyceraldehyde. (FEBS Lett. 2006, 580, 1198-1204)

[2] = Cofactor acceptance of Ta-ALDH variants (10 mM NAD); assay type: biochemical
Description: (§2) Colonies of E. coli BL21 (DE3) containing Ta-ALDH library were transferred into 96-deepwell plates (Gainer BioOne) containing Zym5052 autoinduction medium (Protein Expression and Purification, 2005. 41(1): p. 207-234). Cultures were grown over night at 37° C., 1000 rpm. Cells were harvested by centrifugation at 5000 g at 2° C. for 2 min and lysed with B-Per® protein extraction reagent (Thermo Fisher Scentific, Rockford, USA). After incubation for 60 min at 50° C., insoluble cell debris and was removed by centrifugation at 5000 g at 20° C. for 30 min. Supernatants containing variants of TaALDH were tested for relative activity under standard conditions: 2 mM NAD, 1 mM D-glyceraldehyde in 50 mM HEPES (pH 7) at 50° C. After 20 min NADH formation was detected spectrophotometrically at 340 nm.
Change in cofactor acceptance of Ta-ALDH variants was tested under standard assay conditions but with 10 mM NAD. After 20 min NADH formation was detected and compared to relative activity.
(§3) The values “relative to wt” are the mU/mL values normalized to the wildtype control value.

[3] = Activity in solvents of Ta-ALDH variants (3 % isobutanol); assay type: biochemical
Description: as §2
Activity in solvents of Ta-ALDH variants was tested under standard assay conditions containing additional solvent. After 20 min NADH formation was detected and compared to relative activity.
as §3

[4] = Determination of specific activity of purified TaALDH variants; assay type: biochemical; conditions: purified enzyme, 1 mM D-Glyceraldehyde, 50° C., pH 7
Excerpt: The Ta-aldh gene was cloned in pCBR-Chis expression vector as described above. Mutations F34L, F34M, Y399C, S405C and S405N were inserted into Ta-aldh gene by Quickchange PCR as described above. For recombinant expression, E. coli BL21 (DE3) was transformed with pCBR-Ta-aldh-Chis, pCBR-Ta-aldh-f34I-s405c-Chis, pCBR-Ta-aldh-f34m-s405n-Chis or pCBR-Ta-aldh-f34m-y399c-s405n-Chis. Each of the four variants was produced using the following protocol:
Large amounts of a TaALDH-Variant were produced with fed-batch fermentation in a 40 L Biostat Cplus bioreactor (Sartorius Stedim, Goettingen, Germany). Defined media was supplemented with 30 μg/ml kanamycin. After inoculation cells were grown at 30° C. for 24 h and induced with 0.3 mM IPTG. Enzyme expression was performed at 30° C. for 3 h. One fermentation produced 300 g cells (wet weight). Cells were harvested and lysed with Basic-Z Cell Disruptor (Constant Systems, Northants, UK) in loading buffer (200 mM NaCl; 20 mM Imidazol; 2.5 mM MgCl2; 50 mM NaPi, pH 6.2). After heat treatment at 50° C. for 30 min, cell debris and protein aggregates were separated from soluble fraction by centrifugation at 30,000 g at 20° C. for 30 min (Sorvall RC6+, SS-34 rotor, Thermo Scientific).
Soluble fraction of His-tagged TaALDH-Variant was further purified by Ni-NTA chromatography using ÄKTA UPC-900 FPLC-system (GE Healthcare, Freiburg, Germany). Supernatant was loaded on HiTrap FF-column and washed with two column volumes of loading buffer. Highly purified and concentrated TaALDH was fractioned after elution in imidazole buffer (200 mM NaCl; 500 mM imidazol; 50 mM NaPi, pH 6.2). Buffer was changed to 20 mM (NH4)HCO3 with HiPrep 26/10 Desalting column and TaALDH was lyophilized with an Alpha 2-4 LD Plus freeze dryer (Martin Christ GmbH, Osterode am Harz, Germany).
TaALDH activity was determined spectrophotometrically at 50° C. by measuring the rate of cofactor reduction at 340 nm in flat bottom microtiter plates (Grainer BioOne) with a Fluorostar Omega Photometer (BMG Labtech GmbH, Ortenberg, Germany). One unit of activity was defined as reduction of 1 μmol of cofactor per minute.

[5] = cited from earlier work
[6] = Isobutanol tolerance of enzymes (I50); assay type: biochemical
[7] = Enzyme half-life at 50° C.
[8] = Screening of TaALDH variants, relative activity under standard conditions (2 mM NAD); assay type: biochemical
Description: as §2, §3

[9] = Ethanol tolerance of enzymes (E50); assay type: biochemical
[10] = PDC activity for natural substrate; assay type: biochemical
Excerpt: as §1

[11] = Enzyme temperature optimum; assay type: biochemical
Thermal tolerance of PDC = assay type: physicochemical
[12] = GDH activity assay (oxidation of D-glucose to gluconate, NAD reduction); assay type: biochemical; conditions: natural substrate
Description: as §1
GDH activity: GDH activity was assayed at 50° C. by oxidizing D-glucose to gluconate, whereby the coenzyme NAD is reduced to NADH. Assay mixture contained 50 mM HEPES (pH 7), 2 mM NAD and 50 mM D-glucose. (J. Biol. Chem. 2006, 281, 14796-14804)

[13] = ADH activity, NADH-dependent reduction of isobutyraldehyde; assay type: biochemical; conditions: substrate isobutyraldehyde
Excerpt: as §1

[14] = ADH activity with acetaldehyde as substrate; assay type: biochemical
Excerpt: as §1

[15] = Table 1, value with literature reference
[16] = Table 2, value with literature reference

B1: F34M Y399C S405N: Aldehyde Dehydrogenase ALDH (EC 1.2.1.3), Thermoplasma acidophilum, Mutations F34M+Y399C+S405N, Seq ID 10; the engineered ALDH of Tables 1 and 2 (protein)
chain: MDTKLYIDGQWVNSSSGKTVDKYSPVTGQVIGRMEAATRDDVDRAIDAAEDAFWAWNDLGSVERSKIIYRAKELIEKNRAELENIIMEENGKPVKEAKEEVDGVIDQIQYYAEWARKLNGEVVEGTSSHRKIFQYKVPYGIVVALTPWNFPAGMVARKLAPALLTGNTVVLKPSSDTPGSAEWIVRKFVEAGVPKGVLNFITGRGSEIGDYIVEHKKVNLITMTGSTATGQRIMQKASANMAKLILELGGKAPFMVWKDADMDNALKTLLWAKYWNAGQSCIAAERLYVHEDIYDTFMSRFVELSRKLALGDPKNADMGPLINKGALQATSEIVEEAKESGAKILFGGSQPSLSGPYRNGYFFLPTIIGNADQKSKIFQEEIFAPVIGARKISSVEEMCDLANDNKYGLASYLFTKDPNIIFEASERIRFGELYVNMPGPEASQGYHTGFRMTGQAGEGSKYGISEYLKLKNIYVDYSGKPLHINTVRDDLFQSGRPVLGSSHHHHHH
modifications: Aldehyde Dehydrogenase (EC 1.2.1.3), Thermoplasma acidophilum, variant F34M-Y399C-S405N Protein sequence including C-terminal His-Tag
[1]
  Activity, 50° C.: 1 U/mg
[2]; 10 mM NAD, 1 mM D-glyceraldehyde, 50° C., pH 7
  10 mM NAD (mU/mL): 396.91 mU/mL
[2]; 10 mM NAD, normalized to the wildtype control value
  relative to wt: 33.3
[2]; ratio of activity at 10 mM NAD to 2 mM NAD
  10 mM NAD /2 mM NAD: 0.7
[3]; 3 % isobutanol, 2 mM NAD, 50° C., pH 7
  3 % isobutanol, 2 mM NAD (mU/mL): 74.77 mU/mL
[3]; 3 % isobutanol, 2 mM NAD, normalized to the wildtype control value
  relative to wt: 46.9
[3]; stability in 3 % isobutanol relative to wildtype
  Stab. rel to wt: 1
[4]
  specific activity (U/mg) at 2 mM NAD: 1.2 U/mg
[5]; [15]
  T-Optimum: 63^[2] 50 °C
[5]; [16]
  T-Optimum: 63^[2] ° C.
[6]
  isobutanol concentration that already induces adverse effects on activity: 3 % (v/v)
[6]; 50° C.
  I50: Isobutanol concentration which causes loss of 50% activity: 3 (50° C.) % v/v
[7]
  Half-life, 50° C.: 12 h
[8]; 1 mM D-glyceraldehyde, 50° C., pH 7, lysate supernatant
  2 mM NAD (mU/mL): 130.81 mU/mL
[8]; mU/mL values normalized to the wildtype control value
  relative to wt: 45.3
[9]; 60° C.
  E50: Ethanol concentration which causes loss of 50% activity: 13 (60° C.) % v/v

B2: PDC: Pyruvate decarboxylase PDC (EC 4.1.1.1), Zymomonas mobilis, Seq ID 20 (protein)
chain: MSYTVGTYLAERLVQIGLKHHFAVAGDYNLVLLDNLLLNKNMEQVYCCNELNCGFSAEGYARAKGAAAAVVTYSVGALSAFDAIGGAYAENLPVILISGAPNNNDHAAGHVLHHALGKTDYHYQLEMAKNITAAAEAIYTPEEAPAKIDHVIKTALREKKPVYLEIACNIASMPCAAPGPASALFNDEASDEASLNAAVEETLKFIANRDKVAVLVGSKLRAAGAEEAAVKFADALGGAVATMAAAKSFFPEENPHYIGTSWGEVSYPGVEKTMKEADAVIALAPVFNDYSTTGWTDIPDPKKLVLAEPRSVVVNGIRFPSVHLKDYLTRLAQKVSKKTGALDFFKSLNAGELKKAAPADPSAPLVNAEIARQVEALLTPNTTVIAETGDSWFNAQRMKLPNGARVEYEMQWGHIGWSVPAAFGYAVGAPERRNILMVGDGSFQLTAQEVAQMVRLKLPVIIFLINNYGYTIEVMIHDGPYNNIKNWDYAGLMEVFNGNGGYDSGAGKGLKAKTGGELAEAIKVALANTDGPTLIECFIGREDCTEELVKWGKRVAAANSRKPVNKLLSGRPVLGSSHHHHHH
modifications: Pyruvate decarboxylase (EC 4.1.1.1), Zymomonas mobilis Protein sequence including C-terminal His-Tag
[10]
  Activity, 50° C.: 64 U/mg
[11]; Table 1
  T-Optimum: 50 50 °C
[6]; 45° C.
  I50: Isobutanol concentration which causes loss of 50% activity: 8 (45° C.) % v/v
[7]
  Half-life, 50° C.: 22 h
[9]; 50° C.
  E50: Ethanol concentration which causes loss of 50% activity: 20 (50° C.) % v/v
Thermal tolerance of PDC
  thermostable up to: up to 50 °C

B3: GDH: Glucose dehydrogenase GDH (EC 1.1.1.47), Sulfolobus solfataricus, NP 344316.1, Seq ID 02 (protein)
chain: MKAIIVKPPNAGVQVKDVDEKKLDSYGKIKIRTIYNGICGTDREIVNGKLTLSTLPKGKDFLVLGHEAIGVVEESYHGFSQGDLVMPVNRRGCGICRNCLVGRPDFCETGEFGEAGIHKMDGFMREWWYDDPKYLVKIPKSIEDIGILAQPLADIEKSIEEILEVQKRVPVWTCDDGTLNCRKVLVVGTGPIGVLFTLLFRTYGLEVWMANRREPTEVEQTVIEETKTNYYNSSNGYDKLKDSVGKFDVIIDATGADVNILGNVIPLLGRNGVLGLFGFSTSGSVPLDYKTLQEIVHTNKTIIGLVNGQKPHFQQAVVHLASWKTLYPKAAKMLITKTVSINDEKELLKVLREKEHGEIKIRILWESGRPVLGSSHHHHHH
modifications: Glucose dehydrogenase (EC 1.1.1.47), Sulfolobus solfataricus Protein sequence including C-terminal His-Tag
[11]; Table 1
  T-Optimum: 70 50 °C
[11]; Table 2
  T-Optimum: 70 °C
[6]; 45° C.
  I50: Isobutanol concentration which causes loss of 50% activity: 9 (45° C.) % v/v
[12]
  Activity, 50° C.: 15 U/mg
[9]; 45° C.
  E50: Ethanol concentration which causes loss of 50% activity: 30 (45° C.) % v/v

B4: ADH: Alcohol dehydrogenase ADH (EC 1.1.1.1), Geobacillus stearothermophilus, Seq ID 18 (protein)
chain: MKAAVVEQFKEPLKIKEVEKPTISYGEVLVRIKACGVCHTDLHAAHGDWPVKPKLPLIPGHEGVGIVEEVGPGVTHLKVGDRVGIPWLYSACGHCDYCLSGQETLCEHQKNAGYSVDGGYAEYCRAAADYVVKIPDNLSFEEAAPIFCAGVTTYKALKVTGAKPGEWVAIYGIGGLGHVAVQYAKAMGLNVVAVDIGDEKLELAKELGADLVVNPLKEDAAKFMKEKVGGVHAAVVTAVSKPAFQSAYNSIRRGGACVLVGLPPEEMPIPIFDTVLNGIKIIGSIVGTRKDLQEALQFAAEGKVKTIIEVQPLEKINEVFDRMLKGQINGRVVLTLEDKLEHHHHHH
modifications: Alcohol dehydrogenase (EC 1.1.1.1), Geobacillus stearothermophilus Protein sequence including C-terminal His-Tag
[5]; [15]
  T-Optimum: >60^[3] 50 °C
[5]; [16]
  T-Optimum: >60^[3] ° C.
[6]; 50° C.
  I50: Isobutanol concentration which causes loss of 50% activity: 5 (50° C.) % v/v
[7]
  Half-life, 50° C.: >24 h
[13]
  Activity, 50° C. (ADH for isobutyraldehyde): 83 U/mg
[14]
  Activity, 50° C. (ADH for acetaldehyde): 210 U/mg
[9]; 50° C.
  E50: Ethanol concentration which causes loss of 50% activity: 25 (50° C.) % v/v
